T1: heregulin (125I-HRG) (human, UniProt Q02297)
T1 chain: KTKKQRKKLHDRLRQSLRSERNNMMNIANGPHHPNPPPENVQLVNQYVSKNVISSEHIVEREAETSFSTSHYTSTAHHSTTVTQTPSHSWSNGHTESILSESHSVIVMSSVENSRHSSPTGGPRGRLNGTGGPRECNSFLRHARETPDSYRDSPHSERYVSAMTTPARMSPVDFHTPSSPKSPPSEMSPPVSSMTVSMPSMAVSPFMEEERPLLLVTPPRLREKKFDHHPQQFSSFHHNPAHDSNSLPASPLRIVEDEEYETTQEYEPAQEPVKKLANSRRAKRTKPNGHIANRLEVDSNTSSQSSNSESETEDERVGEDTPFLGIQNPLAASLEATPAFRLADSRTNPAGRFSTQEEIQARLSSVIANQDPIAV


Target: T1, heregulin (125I-HRG)
Assay: other 125I-HRG radioligand binding, Scatchard

Row | Kd [nM] | Binder
1 | 4.98 | ErbB4-IgG (antibody, homodimeric ECD-human IgG Fc immunoadhesin) QSVCAGTENKLSSLSDLEQQYRALRKYYENCEVVMGNLEITSIEHNRDLSFLRSVREVTGYVLVALNQFRYLPLENLRIIRGTKLYEDRYALAIFLNYRKDGNFGLQELGLKNLTEILNGGVYVDQNKFLCYADTIHWQDIVRNPWPSNLTLVSTNGSSGCGRCHKSCTGRCWGPTENHCQTLTRTVCAEQCDGRCYGPYVSDCCHRECAGGCSGPKDTDCFACMNFNDSGACVTQCPQTFVYNPTTFQLEHNFNAKYTYGAFCVKKCPHNFVVDSSSCVRACPSSKMEVEENGIKMCKPCTDICPKACDGIGTGSLMSAQTVDSSNIDKFINCTKINGNLIFLVTGIHGDPYNAIEAIDPEKLNVFRTVREITGFLNIQSWPPNMTDFSVFSNLVTIGGRVLYSGLSLLILKQQGITSLQFQSLKEISAGNIYITDNSNLCYYHTINWTTLFSTINQRIVIRDNRKAENCTAEGMVCNHLCSSDGCWGPGPDQCLSCRRFSRGRICIESCNLYDGEFREFENGSICVECDPQCEKMEDGLLTCHGPGPDNCTKCSHFKDGPNCVEKCPDGLQGANSFIFKYADPDRECHPCHPNCTQGCNGPTSHDCIYYPWTGHSTLPQHARTP
2 | 5.98 | ErbB3/4-IgG (antibody, heterodimeric ECD-human IgG Fc immunoadhesin (mixture with homodimers)) chain 1: not shown chain 2: QSVCAGTENKLSSLSDLEQQYRALRKYYENCEVVMGNLEITSIEHNRDLSFLRSVREVTGYVLVALNQFRYLPLENLRIIRGTKLYEDRYALAIFLNYRKDGNFGLQELGLKNLTEILNGGVYVDQNKFLCYADTIHWQDIVRNPWPSNLTLVSTNGSSGCGRCHKSCTGRCWGPTENHCQTLTRTVCAEQCDGRCYGPYVSDCCHRECAGGCSGPKDTDCFACMNFNDSGACVTQCPQTFVYNPTTFQLEHNFNAKYTYGAFCVKKCPHNFVVDSSSCVRACPSSKMEVEENGIKMCKPCTDICPKACDGIGTGSLMSAQTVDSSNIDKFINCTKINGNLIFLVTGIHGDPYNAIEAIDPEKLNVFRTVREITGFLNIQSWPPNMTDFSVFSNLVTIGGRVLYSGLSLLILKQQGITSLQFQSLKEISAGNIYITDNSNLCYYHTINWTTLFSTINQRIVIRDNRKAENCTAEGMVCNHLCSSDGCWGPGPDQCLSCRRFSRGRICIESCNLYDGEFREFENGSICVECDPQCEKMEDGLLTCHGPGPDNCTKCSHFKDGPNCVEKCPDGLQGANSFIFKYADPDRECHPCHPNCTQGCNGPTSHDCIYYPWTGHSTLPQHARTP
